# Source: patent publication US5156956A, “Transgultaminase” (Ajinomoto Co., Inc., priority 1987, dated 1992)
# Tests used:
# [1] = system: Acid-precipitated soybean protein; test: Gelation, test tube inversion method; format: biochemical; parameters: key: .smallcircle.: gelled; Δ: weakly gelled; x: remained as solution; conditions: BTGase 0.02 U/mg protein, 55° C., 1 h, MTGase 0.1 U/mg, 37° C.
# Experimental: (§1) 1) The BTGase (freeze dried product, specific activity of 2.50 Units/mg protein) prepared in Example 1 was added to 5 ml of each of 5 and 10 wt. % solutions or suspensions of protein foodstuffs prepared by the method described in Example 1 of Published Unexamined Japanese Patent Application No. 149645/83 or purchased, namely, (1) αsi -casein, (2) Na-caseinate, (3) soybean 11S globulin, (4) soybean 7S globulin, (5) soybean protein isolate "Ajipron S-2" (manufactured by Ajinomoto Co., Inc.), (6) water-extracted soybean protein, (7) acid-precipitated soybean protein, (8) soybean protein particles, (9) soybean protein micelles and (10) gelatin in 0.02 U per 1 mg of protein followed by shake incubation at 55° C. for an hour. After allowing to stand at room temperature, test tubes with samples were turned upside down, whereby gelation was determined by noting whether the samples drifted down or not.
# (§2) For purposes of comparison, the results of gelation ability test with MTGase are also shown. The amount of MTGase added was 0.1 U per 1 mg of substrate protein.
# [2] = system: Ajipron S-2 (soybean protein isolate); test: Gelation, test tube inversion method; format: biochemical; parameters: key: .smallcircle.: gelled; Δ: weakly gelled; x: remained as solution; conditions: BTGase 0.02 U/mg protein, 55° C., 1 h, MTGase 0.1 U/mg, 37° C.
# Experimental: as §1, §2
# [3] = system: Gelatin; test: Gelation, test tube inversion method; format: biochemical; parameters: key: .smallcircle.: gelled; Δ: weakly gelled; x: remained as solution; conditions: BTGase 0.02 U/mg protein, 55° C., 1 h, MTGase 0.1 U/mg, 37° C.
# Experimental: as §1, §2
# [4] = system: Na-Caseinate; test: Gelation, test tube inversion method; format: biochemical; parameters: key: .smallcircle.: gelled; Δ: weakly gelled; x: remained as solution; conditions: BTGase 0.02 U/mg protein, 55° C., 1 h, MTGase 0.1 U/mg, 37° C.
# Experimental: as §1, §2
# [5] = system: Soybean 11S globulin; test: Gelation, test tube inversion method; format: biochemical; parameters: key: .smallcircle.: gelled; Δ: weakly gelled; x: remained as solution; conditions: BTGase 0.02 U/mg protein, 55° C., 1 h, MTGase 0.1 U/mg, 37° C.
# Experimental: as §1, §2
# [6] = system: Soybean 7S globulin; test: Gelation, test tube inversion method; format: biochemical; parameters: key: .smallcircle.: gelled; Δ: weakly gelled; x: remained as solution; conditions: BTGase 0.02 U/mg protein, 55° C., 1 h, MTGase 0.1 U/mg, 37° C.
# Experimental: as §1, §2
# [7] = system: Soybean protein micells; test: Gelation, test tube inversion method; format: biochemical; parameters: key: .smallcircle.: gelled; Δ: weakly gelled; x: remained as solution; conditions: BTGase 0.02 U/mg protein, 55° C., 1 h, MTGase 0.1 U/mg, 37° C.
# Experimental: as §1, §2
# [8] = system: Soybean protein particles; test: Gelation, test tube inversion method; format: biochemical; parameters: key: .smallcircle.: gelled; Δ: weakly gelled; x: remained as solution; conditions: BTGase 0.02 U/mg protein, 55° C., 1 h, MTGase 0.1 U/mg, 37° C.
# Experimental: as §1, §2
# [9] = system: Water-extracted soybean protein; test: Gelation, test tube inversion method; format: biochemical; parameters: key: .smallcircle.: gelled; Δ: weakly gelled; x: remained as solution; conditions: BTGase 0.02 U/mg protein, 55° C., 1 h, MTGase 0.1 U/mg, 37° C.
# Experimental: as §1, §2
# [10] = system: αS1 -Casein; test: Gelation, test tube inversion method; format: biochemical; parameters: key: .smallcircle.: gelled; Δ: weakly gelled; x: remained as solution; conditions: BTGase 0.02 U/mg protein, 55° C., 1 h, MTGase 0.1 U/mg, 37° C.
# Experimental: as §1, §2
# [11] = system: Rabbit myosin; test: Gelation, test tube inversion method; format: biochemical; parameters: key: .smallcircle.: gelled; Δ: weakly gelled; x: remained as solution; conditions: BTGase 0.02 U/mg protein, 55° C., 1 h, MTGase 0.1 U/mg, 37° C.
# Experimental: 2) Rabbit myosin was prepared as follows for use as a substrate for BTGase.
# The concentration of protein was 1.5%. BTGase was added to the myosin under the same conditions as under 1) above to examine gelation ability.
# as §2
# [12] = system: Prawn myosin; test: Gelation, test tube inversion method; format: biochemical; parameters: key: .smallcircle.: gelled; Δ: weakly gelled; x: remained as solution; conditions: 5 ml, 3.6 units of BTGase, 35° C., 35 minutes at maximum, MTGase 0.1 U/mg, 37° C., 1 h
# Experimental: 3) Prawn myosin was prepared as follows for use as a substrate for BTGase.
# The shell of a fresh (live) prawn (body length of about 5 cm) was peeled off and the prawn flection muscle was taken out. After mincing, the mince was washed with ice water and homogenized under cooling in the presence of 0.1 mM DTT and 0.1 mM PMSF. By centrifugation, actomyosin was extracted and separated therefrom. By further ultracentrifugation at 10^5 ×g for 60 minutes, actin was removed to give a myosin-rich fraction. Further dilution precipitation and ultracentrifugation were repeated to give purified prawn myosin. […] By immersing in a water bath at 35° C., the reaction was initiated and carried out for 35 minutes at maximum.
# as §2
# [13] = Sausage: rheometer and organoleptic evaluation; conditions: 1 unit per 1 g of dry pork, 55° C. 2 h, then 80° C. 30 min
# Experimental: Physical properties were measured with a rheometer (manufactured by Yamaden Co., Ltd.) and organoleptic evaluation (n=10) was performed. The amount of BTGase added was 1 unit per 1 g of dry pork. The enzyme reaction was carried out at 55° C. for 2 hours. After completion of the reaction, heating was performed at 80° C. for 30 minutes to make a product. As a control, BTGase-free product was used.
# [14] = system: oxhide-derived atelo-collagen; test: Gelation of atelo-collagen solutions; format: biochemical, ox; parameters: key: .smallcircle.: gelled; Δ: weakly gelled; x: remained as solution; conditions: 0.05 U/mg protein; for Gelation, Immediately After Completion of Incubation: 55° C. 60 minutes; for Gelation, After Heating at 100° C.: 100° C. 15 minutes; for Gelation, After Allowing to Stand for 60 Minutes: room temperature
# Experimental: A necessary amount of oxhide-derived atelo-collagen powders (manufactured by Kouken K.K.) were taken in a test tube and 2 ml of 0.1M Tris-HCl buffer (pH 7.5) was added thereto. After maintaining in a water bath at 55° C. for 15 minutes, the mixture was stirred to prepare 3 to 10% atelo-collagen solutions. Before the solutions of high concentration were gelled due to cooling, BTGase was added thereto in 0.05 U/mg protein followed by incubation at 55° C. for 60 minutes. As a control for the all samples, 10% atelo-collagen solution with no BTGase added was also incubated likewise. Immediately after completion of the incubation, the system was allowed to stand at room temperature for 60 minutes. Then the system was further kept in a water bath of 100° C. for 15 minutes and then the condition in the test tube was observed.
molecule,measurement,setting,value
"BTGase: microorganism-derived transglutaminase; in Examples 4-11 the freeze dried product prepared in Example 1 (S. mobaraense, i.e. BTG-1) (protein, UniProt P81453 77-407, looked up) Protein-glutamine …: DSDDRVTPPAEPLDRMPDPYRPSYGRAETVVNNYIRKWQQVYSHRDGRKQQMTEEQREWLSYGCVGVTWVNSGQYPTNRLAFASFDEDRFKNELKNGRPRSGETRAEFEGRVAKESFDEEKGFQRAREVASVMNRALENAHDESAYLDNLKKELANGNDALRNEDARSPFYSALRNTPSFKERNGGNHDPSRMKAVIYSKHFWSGQDRSSSADKRKYGDPDAFRPAPGTGLVDMSRDRNIPRSPTSPGEGFVNFDYGWFGAQTEADADKTVWTHGNHYHAPNGSLGAMHVYESKFRNWSEGYSDFDRGAYVITFIPKSWNTAPDKVKQGWP","Gelation, Acid-precipitated soybean protein 5%",[1]; 5%,.smallcircle.
same,"Gelation, Acid-precipitated soybean protein 10%",[1]; 10%,.smallcircle.
same,"Gelation, Ajipron S-2 5%",[2]; 5%,.smallcircle.
same,"Gelation, Ajipron S-2 10%",[2]; 10%,.smallcircle.
same,"Gelation, Gelatin 5%",[3]; 5%,.smallcircle.
same,"Gelation, Gelatin 10%",[3]; 10%,.smallcircle.
same,"Gelation, Na-Caseinate 5%",[4]; 5%,.smallcircle.
same,"Gelation, Na-Caseinate 10%",[4]; 10%,.smallcircle.
same,"Gelation, Soybean 11S globulin 5%",[5]; 5%,.smallcircle.
same,"Gelation, Soybean 11S globulin 10%",[5]; 10%,.smallcircle.
same,"Gelation, Soybean 7S globulin 5%",[6]; 5%,.smallcircle.
same,"Gelation, Soybean 7S globulin 10%",[6]; 10%,.smallcircle.
same,"Gelation, Soybean protein micells 5%",[7]; 5%,Δ
same,"Gelation, Soybean protein micells 10%",[7]; 10%,.smallcircle.
same,"Gelation, Soybean protein particles 5%",[8]; 5%,.smallcircle.
same,"Gelation, Soybean protein particles 10%",[8]; 10%,.smallcircle.
same,"Gelation, Water-extracted soybean protein 5%",[9]; 5%,.smallcircle.
same,"Gelation, Water-extracted soybean protein 10%",[9]; 10%,.smallcircle.
same,"Gelation, αS1 -Casein 5%",[10]; 5%,.smallcircle.
same,"Gelation, αS1 -Casein 10%",[10]; 10%,.smallcircle.
same,"Gelation, Rabbit myosin 1.5%",[11],.smallcircle.
same,"Gelation, Prawn myosin 3.6%",[12],.smallcircle.
same,Viscosity Coefficient,[13],1.92 × 10^9 dyn.sec.cm^-2
same,"Gelation, Immediately After Completion of Incubation",[14]; 3% Solution,.smallcircle.
same,"Gelation, After Heating at 100° C.",[14]; 3% Solution,.smallcircle.
same,"Gelation, After Allowing to Stand for 60 Minutes",[14]; 3% Solution,.smallcircle.
same,"Gelation, Immediately After Completion of Incubation",[14]; 5% Solution,.smallcircle.
same,"Gelation, After Heating at 100° C.",[14]; 5% Solution,.smallcircle.
same,"Gelation, After Allowing to Stand for 60 Minutes",[14]; 5% Solution,.smallcircle.
same,"Gelation, Immediately After Completion of Incubation",[14]; 10% Solution,.smallcircle.
same,"Gelation, After Heating at 100° C.",[14]; 10% Solution,.smallcircle.
same,"Gelation, After Allowing to Stand for 60 Minutes",[14]; 10% Solution,.smallcircle.
